The values that follow come from patent US20070111259A1 (BIOSITE, published 2007).

Assay [1] addresses T1, biotinylated interleukin 8 (IL8-biotin) (human, UniProt P10145 21-99, reacted with biotin-XX-NHS ester (1 mM); labelled residues not stated).
T1 construct: mature; also called IL-8 labeled with biotin; biotinylated IL-8
T1 sequence: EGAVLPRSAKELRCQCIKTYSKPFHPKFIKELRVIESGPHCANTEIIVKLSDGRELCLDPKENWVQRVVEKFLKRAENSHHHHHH
Briefly: fraction of Fab bound by a large excess of biotin-IL-8, removed on avidin magnetic latex.

For assay [2], the target named is T1, biotinylated interleukin 8 (IL8-biotin). In words: solution equilibrium with 1e-10 M biotin-IL-8, B/F vs B plot, free Fab by sandwich ELISA. For orientation: In an ELISA, binding on a coated surface is turned into a signal by an enzyme label.
Experimental: The equilibrium binding constants of individual monoclonal antibodies were determined by analysis of the total and free antibody concentrations after a binding equilibrium was established in the presence of biotinylated IL-8 at 10⁻¹⁰ M in a 1% solution of bovine serum albumin buffered at pH 8.0. […] The supernatant solution was removed from the microtiter wells containing the magnetic particles and the antibody concentration was determined. The concentration of total antibody added to the individual wells was determined by quantifying the antibody in a sample that was not mixed with IL-8. […] When determining the concentration of total antibody in an equilibrium mixture, the antibody concentration is the amount of total antibody in the mixture determined from the assay described below multiplied by the immunoreactive fraction. Similarly, when calculating the free antibody in an equilibrium mixture after the removal of IL-8, the non-immunoreactive fraction of antibody is subtracted from the free antibody concentration determined by the assay described below. The bound fraction, B, is determined by subtracting the free immunoreactive antibody concentration in the mixture, F, from the total immunoreactive antibody concentration in the mixture. […]

B1: M1-21 (Fab)
heavy: QVQLVQSGGGVVQPGKSLRLSCAASGFTFSYYGMHWVRQVPGKGLEWVAAVWYDGSTTYSPDSVKGRFTISRDDSKNTLYLQMSSLRAEDTAVYYCARDRVGLFDYWGQGTLVTVSSASTKGPSVFPLAPSSKSTSGGTAALGCLVKDYFPEPVTVSWNSGALTSGVHTFPAVLQSSGLYSLSSVVTVPSSSLGTQTYICNVNHKPSNTKVDKKAEPKSHHHHHH
light: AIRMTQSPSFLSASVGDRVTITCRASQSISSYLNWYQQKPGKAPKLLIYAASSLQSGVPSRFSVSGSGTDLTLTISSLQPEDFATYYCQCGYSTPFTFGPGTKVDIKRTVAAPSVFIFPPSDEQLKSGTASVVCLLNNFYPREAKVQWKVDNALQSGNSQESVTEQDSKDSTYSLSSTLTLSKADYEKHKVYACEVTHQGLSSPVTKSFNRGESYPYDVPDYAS
notes: also called M1_21H; M1_21L
For B1, the “% Immunoreactive Protein” value in assay [1] came out at 67%. In addition, the Ka in assay [2] was 6.6e+10 M⁻¹.

B2: M1-10 (Fab)
heavy: QVQLVQSGGGLVHPGGSLRLSCEGSGFIFRNHPIHWVRQAPGKGLEWVSVSGIGGDTYYADSVKGRFSISRDNAKNSLYLQMNSLRAEDMAVYYCAREYYYGSGSYRVDYYYYGMDVWGQGTTVTVSSASTKGPSVFPLAPSSKSTSGGTAALGCLVKDYFPEPVTVSWNSGALTSGVHTFPAVLQSSGLYSLSSVVTVPSSSLGTQTYICNVNHKPSNTKVDKKAEPKSHHHHHH
light: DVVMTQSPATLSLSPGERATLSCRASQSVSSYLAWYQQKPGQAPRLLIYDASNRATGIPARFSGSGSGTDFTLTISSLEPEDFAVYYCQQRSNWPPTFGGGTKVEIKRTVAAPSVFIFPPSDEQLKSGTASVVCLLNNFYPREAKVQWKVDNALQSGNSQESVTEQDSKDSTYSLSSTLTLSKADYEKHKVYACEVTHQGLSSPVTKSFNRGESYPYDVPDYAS
notes: also called M1_10H; M1_10L
With B2, in assay [1], the “% Immunoreactive Protein” value turned out to be 90%.
